Test results as given in IntAct's records for PubMed 19934257.

B1: NAD-dependent protein deacetylase sirtuin-1 (Homo sapiens), Q96EB6 (parent)
chain: MADEAALALQPGGSPSAAGADREAASSPAGEPLRKRPRRDGPGLERSPGEPGGAAPEREVPAAARGCPGAAAAALWREAEAEAAAAGGEQEAQATAAAGEGDNGPGLQGPSREPPLADNLYDEDDDDEGEEEEEAAAAAIGYRDNLLFGDEIITNGFHSCESDEEDRASHASSSDWTPRPRIGPYTFVQQHLMIGTDPRTILKDLLPETIPPPELDDMTLWQIVINILSEPPKRKKRKDINTIEDAVKLLQECKKIIVLTGAGVSVSCGIPDFRSRDGIYARLAVDFPDLPDPQAMFDIEYFRKDPRPFFKFAKEIYPGQFQPSLCHKFIALSDKEGKLLRNYTQNIDTLEQVAGIQRIIQCHGSFATASCLICKYKVDCEAVRGDIFNQVVPRCPRCPADEPLAIMKPEIVFFGENLPEQFHRAMKYDKDEVDLLIVIGSSLKVRPVALIPSSIPHEVPQILINREPLPHLHFDVELLGDCDVIINELCHRLGGEYAKLCCNPVKLSEITEKPPRTQKELAYLSELPPTPLHVSEDSSSPERTSPPDSSVIVTLLDQAAKSNDDLDVSESKGCMEEKPQEVQTSRNVESIAEQMENPDLKNVGSSTGEKNERTSVAGTVRKCWPNRVAKEQISRRLDGNQYLFLPPNRYIFHGAEVYSDSEDDVLSSSSCGSNSDSGTCQSPSLEEPMEDESEIEEFYNGLEDEPDVPERAGGAGFGTDGDDQEAINEAISVKQEVTDMNYPSNKS

Variants of: B1
Details: with apex1_human APEX1, P27695
Chain of apex1_human APEX1, P27695 (P27695 whole entry): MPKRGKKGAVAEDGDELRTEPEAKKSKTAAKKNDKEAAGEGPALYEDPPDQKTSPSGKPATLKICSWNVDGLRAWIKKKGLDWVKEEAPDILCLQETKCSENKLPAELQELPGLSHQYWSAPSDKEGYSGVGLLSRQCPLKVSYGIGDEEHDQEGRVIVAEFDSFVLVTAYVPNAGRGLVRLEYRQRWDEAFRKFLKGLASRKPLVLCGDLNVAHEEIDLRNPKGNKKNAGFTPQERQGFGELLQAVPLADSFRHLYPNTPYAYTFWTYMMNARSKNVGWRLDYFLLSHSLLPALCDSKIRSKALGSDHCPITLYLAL

Variant	effect of a mutation on the interaction
H363Y	disrupting interaction
